The target of one assay is HLA-A*03:01. In words: IEDB peptide-MHC binding, purified MHC/direct/fluorescence; filed as Kd, often an IC50 or EC50 that approximates it; ≥ and ≤ were set here for values at or beyond the usual limits of such assays.
The next assay concerns the target HLA-B*07:02. Described as above.
A further assay has as its target HLA-B*44:02. The assay is described as above.
Another assay addresses HLA-B*46:01. The description is as above.
For another assay, the target named is HLA-A*02:01. The assay is described as above.
For another assay, the target named is HLA-A*26:01. The assay is described as above.
In a further assay the target is HLA-B*40:01. The description is as above.
The target in another assay is HLA-A*31:01. The description is as above.
A further assay addresses HLA-A*01:01. The assay is described as above.
Another assay deals with HLA-B*08:02. Described as above. Conditions: source organism: Influenza A virus(A/swine/Shandong/fNY/2003(H9N2)).
Assay [1] addresses HLA-B*27:05. Described as above.
Another assay deals with HLA-A*11:01. Described as above.
Another assay concerns the target HLA-A*24:02. The description is as above.
The next assay has as its target HLA-B*15:01. The assay is described as above.
The target in the next assay is HLA-B*58:01. The assay is described as above.
Assay [2] concerns the target HLA-B*08:01. The description is as above.
Assay [3] addresses HLA-B*35:01. The assay is described as above.
A further assay addresses HLA-A*24:03. Described as above.
For a further assay, the target named is HLA-A*69:01. The assay is described as above.
The target in the next assay is HLA-A*30:01. The assay is described as above.
In another assay the target is HLA-B*18:01. The description is as above. To be noted: source organism: Escherichia coli O157:H7.
The next assay deals with HLA-B*15:09. The assay is described as above. Conditions: source organism: Giardia lamblia ATCC 50803.
Assay [4] concerns the target HLA-B*27:05. In words: IEDB peptide-MHC binding, purified MHC/competitive/fluorescence; filed as Kd, often an IC50 or EC50 that approximates it; ≥ and ≤ were set here for values at or beyond the usual limits of such assays.
Assay [5] has as its target HLA-B*08:01. The description is as above. To be noted: source organism: Yersinia pestis Antiqua.
A further assay addresses HLA-A*23:01. In words: IEDB peptide-MHC binding, purified MHC/direct/fluorescence; filed as Kd, often an IC50 or EC50 that approximates it; ≥ and ≤ were set here for values at or beyond the usual limits of such assays.
Assay [6] deals with HLA-B*35:01. Nature of the assay: IEDB peptide-MHC binding, purified MHC/competitive/fluorescence; filed as Kd, often an IC50 or EC50 that approximates it; ≥ and ≤ were set here for values at or beyond the usual limits of such assays. To be noted: source organism: West Nile virus.
Setting [7] is: source organism: Influenza A virus (A/Viet Nam/HN/2004(H5N1)).
[8] abbreviates: source organism: Giardia lamblia ATCC 50803.
The mark [9] stands for this setting: source organism: Escherichia coli O157:H7.
Where [10] appears, read: source organism: Pseudomonas aeruginosa UCBPP-PA14.
Setting [11] is: source organism: Pseudomonas aeruginosa.
[12] abbreviates: source organism: Francisella tularensis subsp. holarctica LVS.
Where [13] appears, read: source organism: dengue virus type 2.

pKd: −log10 of the molar value. Some results are limits rather than exact numbers.

For orientation: pKd means −log10 of the Kd, conventionally taken in molar units. Read a high pKd as a small Kd.

As to ERNEQGQTL, the pKd with HLA-A*03:01 (setting [7]), with HLA-B*07:02 (setting [7]), in the assay with HLA-B*44:02 (setting [7]), with HLA-B*46:01 (setting [7]), with HLA-A*02:01 (setting [7]) and in the assay with HLA-A*26:01 (source organism: Influenza A virus(A/swine/Shandong/fNY/2003(H9N2))) was at most 4.70 in each case. Moreover, the negative logarithm of the Kd (pKd) with HLA-B*40:01 (setting [7]), with HLA-A*31:01 (setting [7]), with HLA-A*01:01 (setting [7]), with HLA-B*08:02, with HLA-B*27:05 [1] (setting [7]) and in the assay with HLA-A*11:01 (setting [7]) was at most 4.70 throughout. The pKd in the assay with HLA-A*24:02 (setting [7]), with HLA-B*15:01 (setting [7]), in the assay with HLA-B*58:01 (setting [7]) and with HLA-B*08:01 [2] (setting [7]) was at most 4.70 throughout.

IPRQWHPFA: the pKd is at most 4.70 in the assay with HLA-A*03:01 (setting [8]); 6.81 in the assay with HLA-B*07:02 (setting [8]); at most 4.70 in the assay with HLA-B*44:02 (setting [8]); at most 4.70 with HLA-A*02:01 (setting [8]); 5.96 in the assay with HLA-B*35:01 [3] (setting [8]); 4.97 with HLA-A*24:03 (setting [8]). For the same sequence, the pKd in the assay with HLA-A*26:01 (setting [8]) was at most 4.70; with HLA-B*40:01 (setting [8]), at most 4.70; in the assay with HLA-A*69:01 (setting [8]) it was at most 4.70; in the assay with HLA-A*31:01 (setting [8]), at most 4.70; in the assay with HLA-A*01:01 (setting [8]), at most 4.70; with HLA-A*30:01 (setting [8]), 5.33. Further, the negative-log Kd (pKd) with HLA-B*27:05 [1] (setting [8]) is at most 4.70; in the assay with HLA-A*11:01 (setting [8]), at most 4.70; with HLA-B*15:01 (setting [8]), at most 4.70; with HLA-B*58:01 (setting [8]), at most 4.70; with HLA-B*08:01 [2] (setting [8]) it was 5.42.

For the sequence LDKGKLWHL, the negative-log Kd (pKd) with HLA-B*18:01, with HLA-A*03:01 (setting [9]), in the assay with HLA-B*07:02 (setting [9]), in the assay with HLA-B*44:02 (setting [9]), with HLA-B*46:01 (setting [9]) and in the assay with HLA-A*02:01 (setting [9]) was at most 4.70 each time. Moreover, the pKd with HLA-B*40:01 (setting [9]), with HLA-A*69:01 (setting [9]), with HLA-A*31:01 (setting [9]), in the assay with HLA-A*01:01 (setting [9]), with HLA-B*27:05 [1] (setting [9]) and with HLA-A*11:01 (setting [9]) was at most 4.70 throughout. The negative logarithm of the Kd (pKd) with HLA-A*24:02 (setting [9]), with HLA-B*15:01 (setting [9]) and with HLA-B*58:01 (setting [9]) was at most 4.70 each time.

Consider LERIKANIF, for which the pKd is at most 4.70 with HLA-A*03:01 (setting [8]); at most 4.70 with HLA-B*07:02 (setting [8]); at most 4.70 with HLA-B*44:02 (setting [8]); at most 4.70 with HLA-B*46:01 (setting [8]); at most 4.70 in the assay with HLA-A*02:01 (setting [8]); 5.61 with HLA-B*40:01 (setting [8]). Moreover, the pKd in the assay with HLA-A*69:01 (setting [8]), in the assay with HLA-A*31:01 (setting [8]), with HLA-A*01:01 (setting [8]), with HLA-B*15:09, with HLA-B*27:05 [1] (setting [8]) and with HLA-A*11:01 (setting [8]) was at most 4.70 in each case. The pKd with HLA-A*24:02 (setting [8]) was at most 4.70; with HLA-B*15:01 (setting [8]) it was 6.04; with HLA-B*58:01 (setting [8]) it was at most 4.70; in the assay with HLA-B*08:01 [2] (setting [8]), 4.78.

Regarding LRQKRKAGV, the values for the pKd in the assay with HLA-B*27:05 [4] (source organism: Yersinia pestis Antiqua) and in the assay with HLA-B*08:01 [5] were 7.09 and at most 4.70, respectively.

Turning to RQWRWPLGE, in the assay with HLA-B*27:05 [4] (source organism: Mycobacterium tuberculosis C), the pKd was 6.03.

Regarding SPADERAVA, the negative logarithm of the Kd (pKd) with HLA-A*03:01 (setting [10]) was at most 4.70; in the assay with HLA-B*07:02 (setting [11]), 7.38; with HLA-A*02:01 (setting [10]), at most 4.70; with HLA-B*35:01 [3] (setting [11]), 6.91; with HLA-A*24:03 (setting [10]) it was at most 4.70; in the assay with HLA-A*26:01 (setting [10]), at most 4.70. For the same sequence, the pKd in the assay with HLA-B*40:01 (setting [10]) is at most 4.70; in the assay with HLA-A*69:01 (setting [10]) it was at most 4.70; in the assay with HLA-A*31:01 (setting [10]), at most 4.70; with HLA-A*01:01 (setting [10]), at most 4.70; with HLA-A*30:01 (setting [11]), 5.08; in the assay with HLA-B*27:05 [1] (setting [10]), at most 4.70. For the same sequence, the pKd was at most 4.70 with HLA-A*11:01 (setting [10]), at most 5.30 in the assay with HLA-B*15:01 (setting [11]), at most 4.70 in the assay with HLA-B*58:01 (setting [10]) and at most 4.70 in the assay with HLA-B*08:01 [2] (setting [10]).

For VYYIVVRDF, the pKd with HLA-A*23:01 (setting [12]) was 7.77; with HLA-A*24:03 (setting [12]), 7.56; with HLA-A*24:02 (setting [12]), 8.21.

Regarding WMILRAISF, the pKd with HLA-A*30:01 (source organism: West Nile virus SPU116/89) is at most 4.70; in the assay with HLA-B*35:01 [6] it was 5.89.

For the sequence WYGMEIRPL, the figures for the pKd in the assay with HLA-A*23:01 (setting [13]) and with HLA-A*24:02 (setting [13]) were 5.74 and 6.34, respectively.
